# Reference: US20220144895A1, “DE NOVO DESIGN OF TUNABLE PH-DRIVEN CONFORMATIONAL SWITCHES” (University of Washington, priority 2019, published 2022)
# Positions count from the first letter of the chain named. Names and notes keep the numbering of the source. “Also recorded” adds a separate entry of the source.
# B1: pRO-2: designed pH-responsive homotrimer, SEQ ID NO: 1-2 (protein)
# chain 1: MGSHHHHHHGSGSENLYFQGSEYEIRKALEELKAATAELKRATASLRAITEELKKNPSEDALVEHNRAIVEHNAIIVEHNRIIAAVLELIVRAIK
# chain 2: SEYEIRKALEELKAATAELKRATASLRAITEELKKNPSEDALVEHNRAIVEHNAIIVEHNRIIAAVLELIVRAIK
# B2: pRO-2 I56V: pRO-2 mutant, SEQ ID NO: 17-18 (protein)
# chain 1: B1 chain 1 with I76V
# chain 2: GSEYEIRKALEELKAATAELKRATASLRAITEELKKNPSEDALVEHNRAIVEHNAIVVEHNRIIAAVLELIVRAIK
# Legend:
# [1] = Size-exclusion chromatography (SEC); assay type: physicochemical; conditions: Superdex 75, Na2PO4-Citrate buffer pH 4
# Method: Cells were lysed by microfluidization in the presence of 1 mM PMSF. Lysates were clarified by centrifugation at 24,000 ref at 4° C. for at least 30 minutes. Proteins were purified by Immobilized metal affinity chromatography (IMAC): supernatant was applied to Ni-NTA (Qiagen) columns pre-equilibrated in lysis buffer. The column was washed twice with 15 column volumes (CV) of wash buffer (25 mM Tris pH 8.0 at room temperature, 300 mM NaCl, 40 mM Imidazole), followed by 3-5 CV of high-salt wash buffer (25 mM Tris pH 8.0 at room temperature, 1 M NaCl, 40 mM Imidazole) then an additional 15 CV of wash buffer. Protein was eluted with 250 mM Imidazole, and buffer-exchanged into 25 mM Tris pH 8.0 and 150 mM NaCl without imidazole for cleavage of the N-terminal hexahistidine tag by purified hexahistidine-tagged TEV protease (with the exception of design pRO-1, which was cleaved using restriction grade thrombin (EMD Millipore 69671-3) at room temperature for 4 hours or overnight, using a 1:3000 dilution of enzyme into sample solution). A second Ni-NTA step was used to remove hexahistidine tag, uncleaved sample and the hexahistidine-tagged TEV protease, and the cleaved proteins were then […], 150 mM NaCl, and 2% glycerol.
# [2] = Cryo-electron microscopy and tomography of proteins with DOPC liposomes; conditions: gold-nanoparticle conjugates; for membrane deformation and disruption by cryo-EM: pH 5
# Method: The conjugation reactions were performed immediately prior to use for electron microscopy imaging. […] The grids were prepared using a Vitrobot Mark IV (FEI) at 4 C and 100% humidity before being plunge-frozen in ethane cooled with liquid nitrogen.
# Electron micrographs were collected using a Tecnai G2 Spirit™ Transmission Electron Microscope (FEI) operated at 120 kV and equipped with a 4k×4k Gatan Ultrascan CCD camera at a nominal magnification of 26,000× or a Tecnai TF-20 Transmission Electron Microscope (FEI) operated at 200 kV equipped with a K2 Summit Direct Electron Detector (Gatan).
# Projection micrographs collected on the TF-20 were captured with the detector operating in counting mode. Specimens were imaged at 14,500 magnification, giving a pixel size of 0.254 nm, with a dose of ˜18e−/Å^2 across 75 200 ms movie frames. Data were collected in a semi-automated fashion using Leginon™ (49) and micrograph movie frames were aligned using MotionCor2™ (50). Leginon™ was used to collect tomography tilt series from −48 to +48 degrees bidirectionally in 3 degree increments with a total accumulated dose of ˜100 e−/Å^2. Reconstructions were processed using etomo in the IMOD™ software suite (31) with CTF parameters estimated from CTFFIND4™ (52). Reconstructed tomograms were visualized and measurements were made using ImageJ™ (53).
# [3] = system: U2-OS cells; assay: Lysosomal pH with LysoSensor Yellow/Blue DND-160; assay type: cell-based; conditions: 5 μM protein, 1 hr, LysoSensor yellow/blue ratio
# Method: The final concentration of 5 μM+36GFP fusion proteins was incubated with the LAMP1-HaloTag™ expressing U-2 OS cells on a pre-coated coverslip for 1 hr. Cells were fixed with 4% paraformaldehyde for 20 min at room temperature (RT) and quenched/rinsed with PBS supplemented with 30 mM glycine. Then, the coverslips were mounted on FluoroSave™ (Millipore). For pH measurement of the lysosome, LysoSensor™ Yellow/Blue DND-160 was incubated at 1 mg/mL overnight and washed twice prior to imaging (54). The final concentration of 5 μM protein was incubated with the LAMP1-HaloTag expressing U2-OS cells that were loaded with 1 mg/mL LysoSensor™ Yellow/Blue DND-160 for 1 hr. In separate chambers, LysoSensor™ Yellow/Blue DND-160 loaded cells were incubated with bafilomycin A1 (1 μM) and chloroquine (50 μM) for 1 hr as a control. For live cell confocal microscopy, Zeiss 880 was used to collect LysoSensor™ Yellow/Blue signal. LysoSensor™ Yellow/Blue was excited with a 405 nm laser, and its emission was collected into the two regions (Blue=410-499 nm Yellow=500-600 nm) using a Plan-Apochromat 63×/1.4 oil DIC objective. The ratio of the two channels was calculated using the home-built software in Matlab™.
Molecule,state by SEC at pH 4 [1],membrane deformation and disruption by cryo-EM [2],interaction with liposomes by cryo-EM ([2]; pH 5 and pH 8),change of lysosomal pH [3],change of lysosomal pH ([3]; listed as pRO-256V)
B1,soluble aggregate,widespread membrane deformation and disruption of the lipid bilayer,–,–,–
B2,–,widespread membrane deformation and disruption of the lipid bilayer,directly interacts with liposomes at pH 5 but not at pH 8; also recorded: interacts directly with liposomes at pH 5 but not pH 8,larger changes in lysosomal pH than two drugs; also recorded: increases the lysosomal pH more than the small molecule drugs,raises the lysosomal pH
